*1 amine or outer side, *2 acyl side, *3 side chain or, on linkers, in order; H or OH if unused. Where no end group is shown, it is not given here. Side-chain parts run from the residue outwards. [ ]: non-standard residue; d: D form. The star is where a group is joined. Decanoyl(10-(4-HOOC-PhO)) = O=C(O)c1ccc(OCCCCCCCCCC(=O)*)cc1; αMePhe(2-F) = C[C@](N)(Cc1ccccc1F)C(=O)O; γGlu = O=C(O)[C@H](CCC(=O)[*:2])N[*:1]; αMeY = C[C@](N)(Cc1ccc(O)cc1)C(=O)O; αMeL = CC(C)C[C@](C)(N)C(=O)O; Nle = CCCC[C@H](N)C(=O)O; Orn = NCCC[C@H](N)C(=O)O; AEEA = NCCOCCOCC(=O)O; Aib = CC(C)(N)C(=O)O
T1: human GIP receptor (human, UniProt P48546 22-466)
T1 sequence (looked up): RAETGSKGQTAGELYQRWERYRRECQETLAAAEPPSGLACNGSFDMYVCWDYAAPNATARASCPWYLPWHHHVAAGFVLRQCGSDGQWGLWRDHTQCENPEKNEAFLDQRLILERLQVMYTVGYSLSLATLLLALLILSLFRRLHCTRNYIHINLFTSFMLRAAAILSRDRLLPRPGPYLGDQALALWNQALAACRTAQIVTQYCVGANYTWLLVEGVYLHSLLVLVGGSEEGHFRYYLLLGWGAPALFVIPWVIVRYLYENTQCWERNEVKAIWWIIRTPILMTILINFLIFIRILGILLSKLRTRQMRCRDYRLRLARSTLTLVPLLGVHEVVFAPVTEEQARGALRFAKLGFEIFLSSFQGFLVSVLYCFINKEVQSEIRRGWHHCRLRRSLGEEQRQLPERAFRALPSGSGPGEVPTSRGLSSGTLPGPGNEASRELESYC

T2: human GIP receptor (human, UniProt P48546 22-466)
T2 sequence (looked up): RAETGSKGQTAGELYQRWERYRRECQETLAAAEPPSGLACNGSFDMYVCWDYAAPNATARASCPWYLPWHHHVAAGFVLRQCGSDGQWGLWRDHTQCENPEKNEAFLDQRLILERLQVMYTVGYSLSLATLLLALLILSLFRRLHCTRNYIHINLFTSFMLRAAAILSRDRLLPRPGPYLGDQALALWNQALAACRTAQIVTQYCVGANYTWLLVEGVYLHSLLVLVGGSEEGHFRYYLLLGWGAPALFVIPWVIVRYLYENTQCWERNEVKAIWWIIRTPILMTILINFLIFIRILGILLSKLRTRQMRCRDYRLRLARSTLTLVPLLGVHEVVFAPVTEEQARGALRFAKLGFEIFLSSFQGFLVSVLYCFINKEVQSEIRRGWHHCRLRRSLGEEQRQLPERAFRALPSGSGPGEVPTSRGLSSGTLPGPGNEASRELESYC

T3: human glucose-dependent insulinotropic polypeptide (GIP) receptor (human) (UniProt P48546)
T3 sequence (looked up): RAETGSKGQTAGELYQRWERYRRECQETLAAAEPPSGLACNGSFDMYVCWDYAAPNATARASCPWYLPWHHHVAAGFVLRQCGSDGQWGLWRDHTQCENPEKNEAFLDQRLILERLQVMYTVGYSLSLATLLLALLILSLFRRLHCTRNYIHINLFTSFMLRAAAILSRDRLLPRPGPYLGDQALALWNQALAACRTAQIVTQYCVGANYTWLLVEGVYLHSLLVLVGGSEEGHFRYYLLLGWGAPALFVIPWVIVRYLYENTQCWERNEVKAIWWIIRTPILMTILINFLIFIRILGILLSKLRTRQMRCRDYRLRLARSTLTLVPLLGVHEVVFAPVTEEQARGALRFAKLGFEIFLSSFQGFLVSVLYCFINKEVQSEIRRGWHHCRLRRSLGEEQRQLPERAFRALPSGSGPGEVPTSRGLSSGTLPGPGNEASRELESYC


Tests used:
Assay in all cases: cell-based or functional assay
human GIP receptor [1] = target: T1, human GIP receptor
human glucagon receptor [2] = target: human glucagon receptor (human, UniProt P47871 26-477)
human GLP-1 receptor [3] = target: human GLP-1 receptor (human, UniProt P43220 24-463)
human glucagon receptor [4] = target: human glucagon receptor (human, UniProt P47871 26-477); remark: listed apart in the source
human GIP receptor [5] = target: T2, human GIP receptor; remark: listed apart in the source
human GLP-1 receptor [6] = target: human GLP-1 receptor (human, UniProt P43220 24-463); remark: listed apart in the source
[7] = target: T3, human glucose-dependent insulinotropic polypeptide (GIP) receptor (human)
[8] = target: human glucagon-like peptide-1 (GLP-1) receptor (human) (UniProt P43220)
[9] = target: human glucagon receptor (human) (UniProt P47871)

| Binder | cAMP EC50 (human GIP receptor [1]) [nM] | cAMP EC50 (human glucagon receptor [2]) [nM] | cAMP EC50 (human GLP-1 receptor [3]) [nM] | cAMP EC50 (1.0% HSA) (human glucagon receptor [4]) [nM] | cAMP EC50 (1.0% HSA) (human GIP receptor [5]) [nM] | cAMP Emax (1.0% HSA) (human GIP receptor [5]) [%] | cAMP EC50 (1.0% HSA) (human GLP-1 receptor [6]) [nM] | cAMP Emax (1.0% HSA) (human GLP-1 receptor [6]) [%] | cAMP EC50 [7] [nM] | cAMP Emax [7] [%] | cAMP EC50 [8] [nM] | cAMP Emax [8] [%] | cAMP EC50 [9] [nM] |
| --- | --- | --- | --- | --- | --- | --- | --- | --- | --- | --- | --- | --- | --- |
| Y[Aib]EGT[αMePhe(2-F)]TSD[Nle]SI[αMeL]LD[Orn]IAQ[Aib]EFIK([AEEA-AEEA-γGlu-Decanoyl(10-(4-HOOC-PhO))])[αMeY]LIK([AEEA-AEEA-γGlu-Decanoyl(10-(4-HOOC-PhO))])GGPSSGAPPPS-NH2 [Example 314] | 0.0216 | > 9950 | 0.673 | – | – | – | – | – | – | – | – | – | – |
| YXEGTXTSDYXIXLDXIAQXKFIXXLIKGGPSSGAPPPS (Y-Aib-EGT-αMeF(2F)-TSDY-Aib-I-αMeL-LD-Orn-IAQ-Aib-K((2-[2-(2-Amino-ethoxy)-ethoxy]-acetyl)2-(γ-Glu)-CO-(CH2)12-CO2H)Fl-(D-Glu)-αMeY-LIK((2-[2-(2-Amino-ethoxy)-ethoxy]-acetyl)2-(γ-Glu)-CO-(CH2)12-CO2H)GGPSSGAPPPS-NH2) [Example 234] | – | – | – | > 9950 | 7.58 | 84.4 | 156 | 102 | 0.0182 | 107 | 0.319 | 112 | > 9950 |
| YXEGTXTSDXSIXLDXIAQXKFIXXLIKGGPSSGAPPPS (Aib2, αMeF(2F)6, hTyr10, αMeL13, Orn16, Aib20, D-Glu24, αMeY25; K21 and K28: AEEA2-(γ-Glu)-(10-(4-carboxyphenoxy)decanoyl); C-terminal NH2) [Example 332] | 0.0109 | > 9950 | 0.263 | – | – | – | – | – | – | – | – | – | – |
| YXEGTXTSDXSIXLDXKAQXEFIXXLIKGGPSSGAPPPS (Aib2, αMeF(2F)6, Nle10, αMeL13, Orn16, Aib20, D-Glu24, αMeY25; K17 and K28: AEEA2-(γ-Glu)-(10-(4-carboxyphenoxy)decanoyl); C-terminal NH2) [Example 328] | 0.00973 | > 9950 | 0.405 | – | – | – | – | – | – | – | – | – | – |
| YXEGTXTSDXXIXLDXIAQXKFIXXLIKGGPSSGAPPPS (Y-Aib-EGT-αMeF(2F)-TSD-4Pal-Aib-I-αMeL-LD-Orn-IAQ-Aib-K((2-[2-(2-Amino-ethoxy)-ethoxy]-acetyl)2-(γ-Glu)-(10-(4-carboxyphenoxy)decanoyl))FI-(D-Glu)-αMeY-LIK((2-[2-(2-Amino-ethoxy)-ethoxy]-acetyl)2-(γ-Glu)-(10-(4-carboxyphenoxy)decanoyl))GGPSSGAPPPS-NH2) [Example 247] | – | – | – | > 9950 | 4.24 | 90.2 | 77.7 | 109 | 0.022 | 103 | 1 | 108 | > 9950 |
| YXEGTXTSDYXIXLDXIAQXKFIXXLIKGGPSSGAPPPS (Y-Aib-EGT-αMeF(2F)-TSDY-Aib-I-αMeL-LD-Orn-IAQ-Aib-K((2-[2-(2-Amino-ethoxy)-ethoxy]-acetyl)2-(γ-Glu)-(10-(4-carboxyphenoxy)decanoyl))FI-(D-Glu)-αMeY-LIK((2-[2-(2-Amino-ethoxy)-ethoxy]-acetyl)2-(γ-Glu)-(10-(4-carboxyphenoxy)decanoyl))GGPSSGAPPPS-NH2) [Example 240] | – | – | – | > 9950 | 11.7 | 87.2 | 150 | 107 | 0.0237 | 99.1 | 0.508 | 98.5 | > 9950 |
| YXEGTXTSDXXIXLDXKAQXKFIXXLIEGGPSSGAPPPS (Y-Aib-EGT-αMeF(2F)-TSD-4Pal-Aib-I-αMeL-LD-Orn-K((2-[2-(2-Amino-ethoxy)-ethoxy]-acetyl)2-(γ-Glu)-(10-(4-carboxyphenoxy)decanoyl))AQ-Aib-K((2-[2-(2-Amino-ethoxy)-ethoxy]-acetyl)2-(γ-Glu)-(10-(4-carboxyphenoxy)decanoyl))FI-(D-Glu)-αMeY-LIEGGPSSGAPPPS-NH2) [Example 243] | – | – | – | > 9950 | 0.728 | – | 34.7 | 114 | 0.0154 | 101 | 0.86 | 93.2 | > 9950 |
| YXEGTXTSDYXIXLDXKAQXEFIXXLIKGGPSSGAPPPS (Y-Aib-EGT-αMeF(2F)-TSDY-Aib-I-αMeL-LD-Orn-K((2-[2-(2-Amino-ethoxy)-ethoxy]-acetyl)2-(γ-Glu)-(10-(4-carboxyphenoxy)decanoyl))AQ-Aib-EFI-(D-Glu)-αMeY-LIK((2-[2-(2-Amino-ethoxy)-ethoxy]-acetyl)2-(γ-Glu)-(10-(4-carboxyphenoxy)decanoyl))GGPSSGAPPPS-NH2) [Example 237] | – | – | – | > 9950 | 0.889 | 93.1 | 38.1 | – | 0.0186 | 102 | 0.633 | 102 | > 9950 |
| YXEGTXTSDXSIXLDXKAQXKFIXXLIEGGPSSGAPPPS (Aib2, αMeF(2F)6, Nle10, αMeL13, Orn16, Aib20, D-Glu24, αMeY25; K17 and K21: AEEA2-(γ-Glu)-(10-(4-carboxyphenoxy)decanoyl); C-terminal NH2) [Example 321] | 0.0107 | > 9950 | 0.295 | – | – | – | – | – | – | – | – | – | – |
| YXEGTXTSDXSIXLDXKAQXKFIXXLIEGGPSSGAPPPS (Aib2, αMeF(2F)6, hTyr10, αMeL13, Orn16, Aib20, D-Glu24, αMeY25; K17 and K21: AEEA2-(γ-Glu)-CO-(CH2)10-CH3; C-terminal NH2) [Example 323] | 0.00793 | > 9950 | 0.203 | – | – | – | – | – | – | – | – | – | – |
| YXEGTXTSDXSIXLDXKAQXEFIXXLIKGGPSSGAPPPS (Aib2, αMeF(2F)6, hTyr10, αMeL13, Orn16, Aib20, D-Glu24, αMeY25; K17 and K28: AEEA2-(γ-Glu)-(10-(4-carboxyphenoxy)decanoyl); C-terminal NH2) [Example 327] | 0.018 | > 9950 | 0.211 | – | – | – | – | – | – | – | – | – | – |
